According to patent US20240141059A1 (Bristol-Myers Squibb, published 2024):

Experiments:
[1] = biological target: T1, human GITR (human, UniProt Q9Y5U5 26-241); assay: cell-based or functional assay
T1 sequence (looked up): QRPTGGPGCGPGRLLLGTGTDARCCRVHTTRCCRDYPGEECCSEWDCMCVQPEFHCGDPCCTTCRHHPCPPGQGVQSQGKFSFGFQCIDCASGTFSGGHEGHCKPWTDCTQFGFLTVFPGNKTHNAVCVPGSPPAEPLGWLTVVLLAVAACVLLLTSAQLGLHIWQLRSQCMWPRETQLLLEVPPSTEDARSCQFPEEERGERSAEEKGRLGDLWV

[2] = biological target: T2, hCD73-his (human, UniProt P21589 26-546); assay: SEC of equimolar mAb + hCD73-his
T2 construct: range 26-546; also called full length extracellular domain of human-CD73
T2 sequence (looked up): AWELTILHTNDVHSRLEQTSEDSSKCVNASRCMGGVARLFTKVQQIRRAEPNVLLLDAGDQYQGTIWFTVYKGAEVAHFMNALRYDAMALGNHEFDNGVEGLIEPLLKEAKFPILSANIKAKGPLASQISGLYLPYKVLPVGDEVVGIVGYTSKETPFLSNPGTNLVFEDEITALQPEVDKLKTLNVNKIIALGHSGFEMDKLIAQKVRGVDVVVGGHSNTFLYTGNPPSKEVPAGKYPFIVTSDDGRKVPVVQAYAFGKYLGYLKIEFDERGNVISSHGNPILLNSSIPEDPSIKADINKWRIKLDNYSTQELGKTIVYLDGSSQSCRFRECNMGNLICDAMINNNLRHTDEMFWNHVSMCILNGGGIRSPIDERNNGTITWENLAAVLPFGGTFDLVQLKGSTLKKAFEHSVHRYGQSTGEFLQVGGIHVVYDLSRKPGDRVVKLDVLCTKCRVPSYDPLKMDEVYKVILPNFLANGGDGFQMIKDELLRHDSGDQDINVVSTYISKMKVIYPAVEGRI
Description: (§1) The oligomeric state of CD73/antibody complexes were examined by size-exclusion chromatography coupled to an in-line multi-angle light scattering detector (SEC-MALS). Isocratic separations were performed on a Shodex PROTEIN KW-803 column connected to an Prominence Shimadzu UFLC in buffer containing 200 mM K₂HPO₄, 150 mM NaCl, pH 6.8, containing 0.02% Na azide (0.1 μm filtered) running at 0.5 mL/min. Samples were injected onto the column using a SIL-20AC Prominence Shimadzu® autosampler, and data were obtained from three online detectors connected in series: a Prominence SPD-20AD diode array UV/vis spectrophotometer followed by a Wyatt miniDAWN™ TREOS Multi-Angle Light Scattering Detector then a Wyatt Optilab T-rEX Refractive Index Detector® instrument. Data were collected and analyzed using Astra® (Wyatt) and Labsolutions® (Shimadzu) software.
CD73.4 antibodies having the heavy chain constant regions set forth in Table 14 were also tested for formation of high molecular weight complexes by SEC-MALS and DLS experiments, as described in Example 3.

[3] = biological target: T2, hCD73-his; assay: SEC-MALS, target:mAb 1:1, 2.5 uM + 2.5 uM
Description: The structure and oligomeric state of CD73/antibody complexes in solution were examined by SEC-MALS and DLS.
as §1

[4] = biological target: T3, human CD73 on cells (human, UniProt P21589 27-549); assay: cell-based or functional assay
T3 sequence (looked up): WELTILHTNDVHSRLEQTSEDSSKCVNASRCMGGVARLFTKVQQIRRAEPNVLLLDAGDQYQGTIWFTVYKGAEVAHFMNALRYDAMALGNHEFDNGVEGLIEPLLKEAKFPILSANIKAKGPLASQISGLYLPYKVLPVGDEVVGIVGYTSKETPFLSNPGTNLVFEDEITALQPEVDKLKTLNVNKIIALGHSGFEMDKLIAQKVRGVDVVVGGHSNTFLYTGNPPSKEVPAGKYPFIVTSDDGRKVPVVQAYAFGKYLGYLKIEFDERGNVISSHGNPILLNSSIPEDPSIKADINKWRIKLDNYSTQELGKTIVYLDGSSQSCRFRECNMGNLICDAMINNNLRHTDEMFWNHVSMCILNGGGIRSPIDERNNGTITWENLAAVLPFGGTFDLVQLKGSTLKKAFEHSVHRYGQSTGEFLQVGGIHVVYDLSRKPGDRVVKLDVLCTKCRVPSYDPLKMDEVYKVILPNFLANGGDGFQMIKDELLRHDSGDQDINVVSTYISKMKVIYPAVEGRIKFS

[5] = biological target: T3, human CD73 on cells; assay: cell-based or functional assay; remark: listed apart in the source

B1: GITR.6.G2 (antibody, human IgG2, kappa)
heavy: QVQLVESGGGVVQPGRSLRLSCAASGFTFSSYGMHWVRQAPGKGLEWVAVIWYEGSNKYYADSVKGRFTISRDNSKNTLYLQMNSLRAEDTAVYYCARGGSMVRGDYYYGMDVWGQGTTVTVSSASTKGPSVFPLAPCSRSTSESTAALGCLVKDYFPEPVTVSWNSGALTSGVHTFPAVLQSSGLYSLSSVVTVPSSNFGTQTYTCNVDHKPSNTKVDKTVERKCCVECPPCPAPPVAGPSVFLFPPKPKDTLMISRTPEVTCVVVDVSHEDPEVQFNWYVDGVEVHNAKTKPREEQFNSTFRVVSVLTVVHQDWLNGKEYKCKVSNKGLPAPIEKTISKTKGQPREPQVYTLPPSREEMTKNQVSLTCLVKGFYPSDIAVEWESNGQPENNYKTTPPMLDSDGSFFLYSKLTVDKSRWQQGNVFSCSVMHEALHNHYTQKSLSLSPGK
light: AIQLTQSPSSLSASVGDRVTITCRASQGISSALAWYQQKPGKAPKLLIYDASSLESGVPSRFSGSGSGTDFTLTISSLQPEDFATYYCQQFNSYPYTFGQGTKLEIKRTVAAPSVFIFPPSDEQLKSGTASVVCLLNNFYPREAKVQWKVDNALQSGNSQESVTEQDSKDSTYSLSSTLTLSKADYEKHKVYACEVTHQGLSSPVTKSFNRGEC
- NFKB signaling (phospho-p65), CD4+ T cells, EC50 [1]: 12.8 nM
- NFKB signaling (phospho-p65), CD4+ T cells, Emax [1]: 69%
- NFKB signaling (phospho-p65), CD8+ T cells, EC50 [1]: 9 nM
- NFKB signaling (phospho-p65), CD8+ T cells, Emax [1]: 85%

B2: CD73.4-IgG2-C219S (antibody)
heavy: QVQLVESGGGVVQPGRSLRLSCAASGFTFSNYGMHWVRQAPGKGLEWVAVILYDGSNKYYPDSVKGRFTISRDNSKNTLYLQMNSLRAEDTAVYYCARGGSSWYPDSFDIWGQGTMVTVSSASTKGPSVFPLAPCSRSTSESTAALGCLVKDYFPEPVTVSWNSGALTSGVHTFPAVLQSSGLYSLSSVVTVPSSNFGTQTYTCNVDHKPSNTKVDKTVERKSCVECPPCPAPPVAGPSVFLFPPKPKDTLMISRTPEVTCVVVDVSHEDPEVQFNWYVDGVEVHNAKTKPREEQFNSTFRVVSVLTVVHQDWLNGKEYKCKVSNKGLPAPIEKTISKTKGQPREPQVYTLPPSREEMTKNQVSLTCLVKGFYPSDIAVEWESNGQPENNYKTTPPMLDSDGSFFLYSKLTVDKSRWQQGNVFSCSVMHEALHNHYTQKSLSLSPG
light: not shown
notes: also called CD73.4-IgG2CS; CD73.4-IgG2.3
- UV % Peak1 (<12.9 min) [2]: 37%
- UV % Peak3 (15.1-16.7 min) [2]: 7.7%
- UV % Peak4 (16.7-19.3 min) [2]: 28.6%
- UV % Peak5 (>19.3 min) [2]: 2.9%
- MW Peak 1 [3]: 3400 kDa
- MW Peak 2 [3]: 970 kDa
- MW Peak 3 [3]: 480 kDa
- % internalization, Calu6 cells [4]: 88%
- % internalization, H228 cells [4]: 94%
- % internalization, H2030 cells [4]: 89%
- % internalization, HCC15 cells [4]: 94%
- internalization T1/2, Calu6 cells [4]: 6.5 min
- internalization T1/2, H228 cells [4]: 13.8 min
- internalization T1/2, H2030 cells [4]: 3.7 min
- internalization T1/2, HCC15 cells [4]: 3.1 min
- internalization T1/2, Calu6 [5]: 36 min
- internalization T1/2, NCI-H292 [5]: 16.6 min
- internalization Ymax, Calu6 [5]: 75.6%
- internalization Ymax, NCI-H292 [5]: 78.4%
